Assays:
[1] = molecular target: human FcγRI (CD64) extracellular domain (human) (UniProt P12314); assay: SPR (Biacore), antibody captured on Protein A, FcγR ECD as analyte, 25° C.
[2] = molecular target: human FcγRIIA_131H (CD32a) extracellular domain (human) (UniProt P12318); assay: SPR (Biacore), antibody captured on Protein A, FcγR ECD as analyte, steady state, 25° C.
[3] = molecular target: human FcγRIIA_131R (CD32a) extracellular domain (human) (UniProt P12318); assay: as above
[4] = molecular target: human FcγRIIIA_158F (CD16a) extracellular domain (human) (UniProt P08637); assay: as above
Sequence of human FcγRIIIA_158F (CD16a) extracellular domain (human) (P08637 17-208): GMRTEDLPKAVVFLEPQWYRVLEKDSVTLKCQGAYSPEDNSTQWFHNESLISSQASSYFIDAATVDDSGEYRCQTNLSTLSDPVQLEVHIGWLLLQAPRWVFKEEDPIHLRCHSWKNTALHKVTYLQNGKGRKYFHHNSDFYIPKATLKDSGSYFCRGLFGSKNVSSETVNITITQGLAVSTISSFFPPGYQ

[5] = molecular target: human FcγRIIb (CD32b) extracellular domain (human) (UniProt P31994); assay: as above
Sequence of human FcγRIIb (CD32b) extracellular domain (human) (P31994 43-217): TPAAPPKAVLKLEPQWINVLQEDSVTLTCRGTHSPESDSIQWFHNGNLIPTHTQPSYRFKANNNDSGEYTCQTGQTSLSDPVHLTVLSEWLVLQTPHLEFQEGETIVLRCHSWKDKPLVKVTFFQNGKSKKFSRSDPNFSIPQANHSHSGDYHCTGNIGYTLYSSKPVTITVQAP

Sequence of human FcγRIIA_131R (CD32a) extracellular domain (human) (P12318 34-217 H167R limits assumed): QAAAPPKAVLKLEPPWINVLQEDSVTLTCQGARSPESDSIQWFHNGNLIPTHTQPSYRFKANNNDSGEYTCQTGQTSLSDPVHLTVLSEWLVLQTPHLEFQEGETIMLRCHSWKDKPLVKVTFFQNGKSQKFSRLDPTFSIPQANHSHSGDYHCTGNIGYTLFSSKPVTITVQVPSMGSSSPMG
Sequence of human FcγRI (CD64) extracellular domain (human) (P12314 16-292): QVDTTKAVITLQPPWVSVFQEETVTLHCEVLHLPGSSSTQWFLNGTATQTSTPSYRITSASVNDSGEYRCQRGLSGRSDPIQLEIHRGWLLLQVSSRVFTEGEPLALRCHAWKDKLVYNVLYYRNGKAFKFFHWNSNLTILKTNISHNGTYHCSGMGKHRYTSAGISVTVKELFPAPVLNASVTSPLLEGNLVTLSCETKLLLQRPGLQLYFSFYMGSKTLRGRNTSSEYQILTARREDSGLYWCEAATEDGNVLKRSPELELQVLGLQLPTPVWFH
Sequence of human FcγRIIA_131H (CD32a) extracellular domain (human) (P12318 34-217): as the sequence (P12318 34-217 H167R limits assumed) above, with R134H counted along it

A Kd [1] of 0.0479 nM, a Kd [2] of 570 nM and a Kd [3] of 570 nM were found for human IgG1 isotype control antibody in this work. The Kd [4] was 820 nM and the Kd [5] was 2810 nM.
